In publication PMC3081611:

Target: CurA ACPI-ACPII-ACPIII tridomain
Assay: negative stain electron microscopy

percent existing as dimers: 25% | stoichiometry N: 2
Substance: CurA ACPI-ACPII-ACPIII tridomain (domain or fragment)
